The supplement of paper PMC5998384

Tests used:
HeLa Kyoto [1] = assay: solubility change mitosis vs G1/S (difference of NP-40 vs SDS log2 ratios) (log2 ratio difference); higher = more soluble in mitosis
HeLa Kyoto [2] = assay: thermal stability score vs G1/S (z-score of summed log2 fold changes over temperatures); higher = more thermally stable than in G1/S
HeLa Kyoto [3] = assay: melting temperature (median over replicates), in situ; higher = more thermally stable
HeLa Kyoto [4] = assay: solubility in G1/S (NP-40 vs SDS abundance) (log2 ratio); higher = more soluble; conditions: cell cycle stage: G1/S
[5] = cell cycle stage: early G1 (4.5 h after nocodazole release)
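Wherever melting temperature (median over replicates), in situ is given: HeLa Kyoto cells synchronized by double thymidine or nocodazole block, proteins quantified by TMT10plex mass spectrometry, three independent biological replicates.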
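Wherever solubility change mitosis vs G1/S (difference of NP-40 vs SDS log2 ratios) is given: synchronized HeLa Kyoto cells (double thymidine block for G1/S, nocodazole release for mitosis), protein amounts in NP-40 versus SDS lysates quantified by mass spectrometry, three biological replicates.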
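Wherever solubility in G1/S (NP-40 vs SDS abundance) is given: HeLa Kyoto cells arrested at G1/S by double thymidine block, proteins quantified by TMT10plex mass spectrometry in mild NP-40 versus SDS extracts, three biological replicates.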
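Wherever thermal stability score vs G1/S (z-score of summed log2 fold changes over temperatures) is given: synchronized HeLa Kyoto cells, proteins quantified by TMT10plex mass spectrometry, three biological replicates, mitosis taken 0.5 h after nocodazole release, G1/S directly after double thymidine block.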

| Substance | solubility change mitosis (log2) (HeLa Kyoto [1]) | thermal stability score (HeLa Kyoto [2]; [5]) | thermal stability score (HeLa Kyoto [2]; cell cycle stage: mitosis) | melting temperature (HeLa Kyoto [3]; cell cycle stage: G1/S) [°C] | melting temperature (HeLa Kyoto [3]; cell cycle stage: mitosis) [°C] | solubility in G1/S (log2) (HeLa Kyoto [4]) |
| --- | --- | --- | --- | --- | --- | --- |
| MSLEQEEETQPGRLLGRRDAVPAFIEPNVRFWITERQSFIRRFLQWTELLDPTNVFISVESIENSRQLLCTNEDVSSPASADQRIQEAWKRSLATVHPDSSNLIPKLFRPAAFLPFMAPTVFLSMTPLKGIKSVILPQVFLCAYMAAFNSINGNRSYTCKPLERSLLMAGAVASSTFLGVIPQFVQMKYGLTGPWIKRLLPVIFLVQASGMNVYMSRSLESIKGIAVMDKEGNVLGHSRIAGTKAVRETLASRIVLFGTSALIPEVFTYFFKRTQYFRKNPGSLWILKLSCTVLAMGLMVPFSFSIFPQIGQIQYCSLEEKIQSPTEETEIFYHRGV [SFXN4] | -0.195 | 0.0593 | -1.77 | 53.9 | 54.8 | -0.194 |
| MAAEAADLGLGAAVPVELRRERRMVCVEYPGVVRDVAKMLPTLGGEEGVSRIYADPTKRLELYFRPKDPYCHPVCANRFSTSSLLLRIRKRTRRQKGVLGTEAHSEVTFDMEILGIISTIYKFQGMSDFQYLAVHTEAGGKHTSMYDKVLMLRPEKEAFFHQELPLYIPPPIFSRLDAPVDYFYRPETQHREGYNNPPISGENLIGLSRARRPHNAIFVNFEDEEVPKQPLEAAAQTWRRVCTNPVDRKVEEELRKLFDIRPIWSRNAVKANISVHPDKLKVLLPFIAYYMITGPWRSLWIRFGYDPRKNPDAKIYQVLDFRIRCGMKHGYAPSDLPVKAKRSTYNYSLPITVKKTSSQLVTMHDLKQGLGPSGTSGARKPASSKYKLKDSVYIFREGALPPYRQMFYQLCDLNVEELQKIIHRNDGAENSCTERDGWCLPKTSDELRDTMSLMIRQTIRSKRPALFSSSAKADGGKEQLTYESGEDEEDEEEEEEEEEDFKPSDGSENEMETEILDYV [GTF3C5] | -0.0211 | 2.34 | 4.79 | 47.8 | 49.4 | -0.0747 |
| MSMPDAMPLPGVGEELKQAKEIEDAEKYSFMATVTKAPKKQIQFADDMQEFTKFPTKTGRRSLSRSISQSSTDSYSSAASYTDSSDDEVSPREKQQTNSKGSSNFCVKNIKQAEFGRREIEIAEQDMSALISLRKRAQGEKPLAGAKIVGCTHITAQTAVLIETLCALGAQCRWSACNIYSTQNEVAAALAEAGVAVFAWKGESEDDFWWCIDRCVNMDGWQANMILDDGGDLTHWVYKKYPNVFKKIRGIVEESVTGVHRLYQLSKAGKLCVPAMNVNDSVTKQKFDNLYCCRESILDGLKRTTDVMFGGKQVVVCGYGEVGKGCCAALKALGAIVYITEIDPICALQACMDGFRVVKLNEVIRQVDVVITCTGNKNVVTREHLDRMKNSCIVCNMGHSNTEIDVTSLRTPELTWERVRSQVDHVIWPDGKRVVLLAEGRLLNLSCSTVPTFVLSITATTQALALIELYNAPEGRYKQDVYLLPKKMDEYVASLHLPSFDAHLTELTDDQAKYLGLNKNGPFKPNYYRY [AHCYL1] | -0.119 | -5.66 | -9.49 | 56.4 | 54.6 | -0.111 |
| MSESLVVCDVAEDLVEKLRKFRFRKETNNAAIIMKIDKDKRLVVLDEELEGISPDELKDELPERQPRFIVYSYKYQHDDGRVSYPLCFIFSSPVGCKPEQQMMYAGSKNKLVQTAELTKVFEIRNTEDLTEEWLREKLGFFH [GMFB] | 0.123 | -2.8 | -3.58 | 55.4 | 55.6 | 0.3 |
| FLAD1 | -0.111 | -0.00796 | -0.288 | 51.8 | 51.6 | 0.272 |
| MSAFSEAALEKKLSELSNSQQSVQTLSLWLIHHRKHSRPIVTVWERELRKAKPNRKLTFLYLANDVIQNSKRKGPEFTKDFAPVIVEAFKHVSSETDESCKKHLGRVLSIWEERSVYENDVLEQLKQALYGDKKPRKRTYEQIKVDENENCSSLGSPSEPPQTLDLVRALQDLENAASGDAAVHQRIASLPVEVQEVSLLDKITDKESGERLSKMVEDACMLLADYNGRLAAEIDDRKQLTRMLADFLRCQKEALAEKEHKLEEYKRKLARVSLVRKELRSRIQSLPDLSRLPNVTGSHMHLPFAGDIYSED [RPRD1A] | -0.0443 | 1.27 | 1.64 | 48 | 49.5 | 0.66 |
| MAADISESSGADCKGDPRNSAKLDADYPLRVLYCGVCSLPTEYCEYMPDVAKCRQWLEKNFPNEFAKLTVENSPKQEAGISEGQGTAGEEEEKKKQKRGGRGQIKQKKKTVPQKVTIAKIPRAKKKYVTRVCGLATFEIDLKEAQRFFAQKFSCGASVTGEDEIIIQGDFTDDIIDVIQEKWPEVDDDSIEDLGEVKK [DENR] | 0.142 | 0.263 | 0.467 | 56.9 | 58.6 | 0.481 |
| MPYVDRQNRICGFLDIEENENSGKFLRRYFILDTREDSFVWYMDNPQNLPSGSSRVGAIKLTYISKVSDATKLRPKAEFCFVMNAGMRKYFLQANDQQDLVEWVNVLNKAIKITVPKQSDSQPNSDNLSRHGECGKKQVSYRTDIVGGVPIITPTQKEEVNECGESIDRNNLKRSQSHLPYFTPKPPQDSAVIKAGYCVKQGAVMKNWKRRYFQLDENTIGYFKSELEKEPLRVIPLKEVHKVQECKQSDIMMRDNLFEIVTTSRTFYVQADSPEEMHSWIKAVSGAIVAQRGPGRSASSEHPPGPSESKHAFRPTNAATATSHSTASRSNSLVSTFTMEKRGFYESLAKVKPGNFKVQTVSPREPASKVTEQALLRPQSKNGPQEKDCDLVDLDDASLPVSDV [PLEKHA1] | -0.0272 | 0.0968 | 0.182 | 49.8 | 49 | 0.0285 |
| MAHVGSRKRSRSRSRSRGRGSEKRKKKSRKDTSRNCSASTSQGRKASTAPGAEASPSPCITERSKQKARRRTRSSSSSSSSSSSSSSSSSSSSSSSSSDGRKKRGKYKDKRRKKKKKRKKLKKKGKEKAEAQQVEALPGPSLDQWHRSAGEEEDGPVLTDEQKSRIQAMKPMTKEEWDARQSIIRKVVDPETGRTRLIKGDGEVLEEIVTKERHREINKQATRGDCLAFQMRAGLLP [ARL6IP4] | 0.853 | -1.78 | -3.1 | 52.6 | 52 | -0.997 |
| MDN1 | 0.182 | 0.349 | 1.35 | 51.1 | 50.5 | -0.665 |
| MVHCSCVLFRKYGNFIDKLRLFTRGGSGGMGYPRLGGEGGKGGDVWVVAQNRMTLKQLKDRYPRKRFVAGVGANSKISALKGSKGKDCEIPVPVGISVTDENGKIIGELNKENDRILVAQGGLGGKLLTNFLPLKGQKRIIHLDLKLIADVGLVGFPNAGKSSLLSCVSHAKPAIADYAFTTLKPELGKIMYSDFKQISVADLPGLIEGAHMNKGMGHKFLKHIERTRQLLFVVDISGFQLSSHTQYRTAFETIILLTKELELYKEELQTKPALLAVNKMDLPDAQDKFHELMSQLQNPKDFLHLFEKNMIPERTVEFQHIIPISAVTGEGIEELKNCIRKSLDEQANQENDALHKKQLLNLWISDTMSSTEPPSKHAVTTSKMDII [GTPBP10] | 0.0276 | -0.944 | 0.176 | 49.4 | 50.8 | 0.217 |
| METAEKECGALGGLFQAIVNDMKSSYPIWEDFNSKATKLHSQLRTTVLAAVAFLDAFQKVADMATNTRGATRDIGSALTRMCMRHRSIETKLRQFTNALLESLINPLQERIEDWKKAANQLDKDHAKEYKRARHEIKKKSSDTLKLQKKARKELLGKGDLQPQLDSALQDVNDMYLLLEETEKQAVRRALIEERGRFCTFITFLQPVVNGELTMLGEITHLQGIIDDLVVLTAEPHKLPPASEQVIKDLKGSDYSWSYQTPPSSPSSSSSRKSSMCSAPSSSSSAKGGGAPWPGGAQTYSPSSTCRYRSLAQPATTTARLSSVSSHDSGFVSQDATYSKPPSPMPSDITSQKSSSSASSEASETCQSVSECSSPTSDWSKVGSHEQPSGATLQRRKDRVELLRDTEPGPASGGTLGPSGEEAPRPRMSPATIAAKHGEEVSPAASDLAMVLTRGLSLEHQKSSRDSLQYSSGYSTQTTTPSCSEDTIPSQGSDYDCYSVNGDADSEGPPEFDKSSTIPRNSNIAQNYRRLIQTKRPASTAGLPTAGLPTATGLPSGAPPGVATIRRTPSTKPTVRRALSSAGPIPIRPPIVPVKTPTVPDSPGYMGPTRAGSEECVFYTDETASPLAPDLAKASPKRLSLPNTAWGSPSPEAAGYPGAGAEDEQQQLAANRHSLVEKLGELVAGAHALGEGQFPFPTALSATPTEETPTPPPAATSDPPAEDMLVAIRRGVRLRRTVTNDRSAPRIL [MTSS1L] | -0.0468 | 0.647 | 0.625 | 53.5 | 54.2 | 0.191 |
